Measured values as given in publication PMC11931385, “Structural and functional analysis of cancer-associated missense variants in the retinoblastoma protein pocket domain” (The Journal of Biological Chemistry, 2025).
Where a chain is given by its changes, count along the chain named. Numbers in names are those of the source. No end group written: not given here. TMR = tetramethyl rhodamine dye

How the values were obtained:
Assay in all cases: fluorescence polarisation; 25 °C; unlabeled Rb^P titrated against 1.5 nM TMR-E2F1^TD or 7.5 nM TMR-E7^LxCxE; 25 mM Tris pH 8.0, 200 mM NaCl, 1 mM DTT, 0.1% Tween-20; 2 min incubation; quadratic fit; apparent Kd for the variants, Kd for WT
Conditions in all cases: both partners purified
Rb^P Q444L = molecular target: T1, Rb^P Q444L (human, UniProt P06400 380-788, Q444L)
T1 construct: also called variant 3
T1 sequence (looked up): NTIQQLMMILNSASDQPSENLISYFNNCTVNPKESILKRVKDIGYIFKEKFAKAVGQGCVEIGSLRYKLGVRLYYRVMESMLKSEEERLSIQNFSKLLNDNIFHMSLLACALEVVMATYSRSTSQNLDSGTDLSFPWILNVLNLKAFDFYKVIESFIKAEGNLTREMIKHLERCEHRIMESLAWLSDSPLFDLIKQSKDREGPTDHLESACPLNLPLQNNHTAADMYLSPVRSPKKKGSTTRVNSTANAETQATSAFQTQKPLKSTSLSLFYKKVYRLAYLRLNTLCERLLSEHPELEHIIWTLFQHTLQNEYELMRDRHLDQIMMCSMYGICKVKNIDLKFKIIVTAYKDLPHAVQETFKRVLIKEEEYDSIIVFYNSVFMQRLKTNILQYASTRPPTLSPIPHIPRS

Rb^P R621S = molecular target: T2, Rb^P R621S (human, UniProt P06400 380-788, R621S)
T2 construct: also called variant 44
T2 sequence (looked up): T1 sequence (looked up) with L65Q, R242S

Rb^P T738I = molecular target: T3, Rb^P T738I (human, UniProt P06400 380-788, T738I)
T3 construct: also called variant 67
T3 sequence (looked up): T1 sequence (looked up) with L65Q, T359I

Rb^P H699P = molecular target: T4, Rb^P H699P (human, UniProt P06400 380-788, H699P)
T4 construct: also called variant 63
T4 sequence (looked up): T1 sequence (looked up) with L65Q, H320P

Rb^P S474R = molecular target: T5, Rb^P S474R (human, UniProt P06400 380-788, S474R)
T5 construct: also called variant 13
T5 sequence (looked up): T1 sequence (looked up) with L65Q, S95R

B1: TMR-E2F1^TD, peptide of the E2F1 transactivation domain (peptide)
peptide: {TMR}-GEGIRDLFDCDFGDLTPLD
notes: also called E2F^TD; source: synthetic peptide, bought: GenScript
Kd (Rb^P Q444L): 14 nM | Kd (Rb^P R621S): 21 nM | Kd (Rb^P T738I): 60 nM | Kd (Rb^P H699P): 35 nM | Kd (Rb^P S474R): 365 nM

B2: TMR-E7^LxCxE, LxCxE peptide of the E7 oncoprotein from HPV (peptide)
peptide: DLYCYEQLN
modifications: also: TMR label, position not given here
notes: source: synthetic peptide, bought: GenScript
Kd (Rb^P Q444L): 4 nM | Kd (Rb^P R621S): 6 nM | Kd (Rb^P T738I): 18 nM | Kd (Rb^P H699P): 6 nM | Kd (Rb^P S474R): 5 nM
